Results reported in patent US20250043302A1, “MUTATED HYDROXYPHENYLPYRUVATE DIOXYGENASE POLYPEPTIDE, AND CODING GENE AND USE THEREOF” (BEIJING DABEINONG BIOTECHNOLOGY CO., LTD., priority 2021, published 2025).

Assays:
Type in all cases: in vivo
[1] = tested on: Arabidopsis thaliana T1 plants; test: Topramezone tolerance of transgenic Arabidopsis thaliana T1 plants (spray, bleached leaf area grade, damage score); conditions: 7 DAT, Table 4; for Classification and statistics of the grade of pesticide damage: Grade 0 / Classification and statistics of the grade of pesticide damage: Grade 1 / Classification and statistics of the grade of pesticide damage: Grade 2 / Classification and statistics of the grade of pesticide damage: Grade 3: number of plants; for Scores: pesticide damage score 0-100
How it was run: (§1)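 Read-out: per-plant damage grade 0–3 from proportion of bleached leaf area at 7 DAT (1 <50%, 2 >50%, 3 100%). Plants were T1 transformants, glufosinate-selected, plus wild-type CK, sprayed 18 days post-sowing. Rates: topramezone 25–200, isoxaflutole 35–280, mesotrione 52.5–420 g ai/ha.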

[2] = tested on: Arabidopsis thaliana T1 plants; test: Isoxaflutole tolerance of transgenic Arabidopsis thaliana T1 plants (spray, bleached leaf area grade, damage score); parameters: Scores (pesticide damage): scale not given here; conditions: spray, Arabidopsis thaliana T1 plants; for Classification and statistics of the grade of pesticide damage: Grade 0 (number of plants) / Classification and statistics of the grade of pesticide damage: Grade 1 (number of plants) / Classification and statistics of the grade of pesticide damage: Grade 2 (number of plants) / Classification and statistics of the grade of pesticide damage: Grade 3 (number of plants): 16 plants
How it was run: as §1

[3] = tested on: Arabidopsis thaliana T1 plants; test: Mesotrione tolerance of transgenic Arabidopsis thaliana T1 plants (spray, bleached leaf area grade, damage score); parameters: Scores: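 damage score 0-100 computed as Σ(N×S)/(T×M)×100 over grades 0-3 with higher meaning more damage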; conditions: Arabidopsis thaliana T1 plants; for Grade 0 (classification and statistics of the grade of pesticide damage; number of plants) / Grade 1 (classification and statistics of the grade of pesticide damage; number of plants) / Grade 2 (classification and statistics of the grade of pesticide damage; number of plants) / Grade 3 (classification and statistics of the grade of pesticide damage; number of plants): 16 plants
How it was run: as §1

[4] = isoxaflutole 35 g ai/ha (0.5x field concentration)
[5] = isoxaflutole 70 g ai/ha (1x field concentration)

B1: GsHPPDm-F372A-02: nucleotide sequence encoding Gossypium hirsutum HPPD with F372A; vector DBN11739 (nucleic acid)
DNA: ATGGTTCAAACAAATCAATCTGGTTCTGGGAATGATTTCAAGCTGGTTGGTTTCTCAAATTTTGTGCGTAGCAATCCCAAATCAGACCGCTTCACGGTCAAGAGATTCCACCACATTGAATTTTGGTGCACTGATGCCACTAATGTGGCGAGGAGGTTTTCATGGGGTTTAGGGATGCAGTTCGTCGCCAAGAGTGACCTCTCCACAGGAAATTTGACGCATGCAAGCTACCTGCTGCGGAGCCGCGACTTGAATTTCCTGTTTACAGCACCATATTCACCCAGTATTGCAGTTGCTCAAAACCTTTCGCCACAAAGCACTGCTTCCATACCTTCATTTGATCACTCGCTTTGTCGGTCCTTTGCTGCAACACATGGACTTGGCGTCAGAGCAATTGCCATCGAGGTGGACGACGCCGAAACTGCCTTCACCACGAGCGTGACACATGGCGCGCTCCCTTTTTGTCCACCAACACCACTAGGAGATGTGGCTACAATTGCTGAAGTTAAATTATATGGTGATGTTGTGCTCAGATATGTTTCTTACACCACAACCATCAACTCCGACCATGATTTTCTGCCTGGTTTTGAGAAGATTGAAGATACTCTATCGTATCCTTTGGATTATGGCCTGCGTCGGCTCGATCATGCTGTTGGCAACGTACCTGAATTAGGTCCTGCTGTATCTTATGTGAAATCTTTTACTGGGTTCCATGAGTTTGCAGAGTTCACCGCTGAGGATGTAGGAACAAGTGAATCTGGGCTGAACTCAGTTGTTTTGGCCAACAATGAGGAAATGGTCCTCTTACCAATGAACGAGCCGGTGTTCGGCACTAAGCGCAAATCTCAAATACAGACCTACTTGGAGCACAATGAAGGAGCTGGTGTGCAGCACCTCGCCCTCGTCTCGGAGGACATCTTCAAAACTTTAAGGGAGATGAGGAAACGATCCTTTGTGGGAGGATTTGAATTCATGCCTTCTCCGCCGCCGACATACTACAAGAAGCTCAAGCAGCGCGCGGGGGACATTTTGTCTGATGAGCAGATCAAGGAGTGTGAAGAGCTTGGGATTCTTGTTGATAGAGATGATCAAGGAACGCTTCTGCAGATAGCCACCAAGCCCGTCGGCGACCGGCCTACTATATTCATTGAGATCATCCAGAGAATTGGTTGCATGGTGAAGGATGAAGAAGGGAAACAGTACCAGAAGGGCGGCTGCGGCGGGTTTGGAAAAGGAAACTTCAGTGAGCTGTTTAAAAGTATAGAGGAGTATGAAAAGAGCTTGGAAGCAAAACAATCACAAAATCCATGA
modifications: GsHPPDm-F372A-02 Nucleotide Sequence
notes: vector DBN11739
[1]; topramezone 25 g ai/ha (1×)
  Classification and statistics of the grade of pesticide damage: Grade 0: 16
  Classification and statistics of the grade of pesticide damage: Grade 1: 0
  Classification and statistics of the grade of pesticide damage: Grade 2: 0
  Classification and statistics of the grade of pesticide damage: Grade 3: 0
  Scores: 0
  Resistance evaluation: highly
[1]; topramezone 100 g ai/ha (4×)
  Classification and statistics of the grade of pesticide damage: Grade 0: 0
  Classification and statistics of the grade of pesticide damage: Grade 1: 0
  Classification and statistics of the grade of pesticide damage: Grade 2: 0
  Classification and statistics of the grade of pesticide damage: Grade 3: 16
  Scores: 100
  Resistance evaluation: non-resistant (non-resistant plants (scores 68-100))
[2]; [4]
  Resistance evaluation: Moderately
  Scores (pesticide damage): 33
  Classification and statistics of the grade of pesticide damage: Grade 0 (number of plants): 3
  Classification and statistics of the grade of pesticide damage: Grade 1 (number of plants): 10
  Classification and statistics of the grade of pesticide damage: Grade 2 (number of plants): 3
  Classification and statistics of the grade of pesticide damage: Grade 3 (number of plants): 0
[2]; [5]
  Resistance evaluation: Non-resistant
  Scores (pesticide damage): 100
  Classification and statistics of the grade of pesticide damage: Grade 0 (number of plants): 0
  Classification and statistics of the grade of pesticide damage: Grade 1 (number of plants): 0
  Classification and statistics of the grade of pesticide damage: Grade 2 (number of plants): 0
  Classification and statistics of the grade of pesticide damage: Grade 3 (number of plants): 16
[3]; mesotrione 52.5 g ai/ha
  Resistance evaluation: Poorly resistant
  Scores: 54
  Grade 0 (classification and statistics of the grade of pesticide damage; number of plants): 0
  Grade 1 (classification and statistics of the grade of pesticide damage; number of plants): 8
  Grade 2 (classification and statistics of the grade of pesticide damage; number of plants): 6
  Grade 3 (classification and statistics of the grade of pesticide damage; number of plants): 2
[3]; mesotrione 105 g ai/ha
  Resistance evaluation: Non-resistant
  Scores: 100
  Grade 0 (classification and statistics of the grade of pesticide damage; number of plants): 0
  Grade 1 (classification and statistics of the grade of pesticide damage; number of plants): 0
  Grade 2 (classification and statistics of the grade of pesticide damage; number of plants): 0
  Grade 3 (classification and statistics of the grade of pesticide damage; number of plants): 16
